From patent US20230159650A1 (SEOUL NATIONAL UNIVERSITY R AND DB FOUNDATION, published 2023) come the findings set out here.

In the assay the target is T1, human FasL where an immunoglobulin (IgG) is combined (huFasL-IgG) (human, UniProt P48023 134-281, limits assumed).
T1 construct: also called IgG-combined FasL; not shown: immunoglobulin (IgG) part
T1 sequence (looked up): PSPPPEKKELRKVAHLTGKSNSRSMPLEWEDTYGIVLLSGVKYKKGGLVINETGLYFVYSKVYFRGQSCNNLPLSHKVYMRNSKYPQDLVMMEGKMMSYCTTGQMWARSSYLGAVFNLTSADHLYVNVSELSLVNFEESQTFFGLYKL
Briefly: flow cytometry on transfected mouse cells. As to the method:
After transfecting mutated huDR5 DNA to mouse cells and expressing each of DR5 where huDR5-CRD2 was mutated (Table 1, SEQ ID NO: 4), or DR5 where huDR5-CRD3 was mutated (Table 1, SEQ ID NO: 5), flow cytometry was performed using human FasL where an immunoglobulin (IgG) binding only to cells expressing huDR5 was combined (huFasL-IgG), and the result was shown in FIG. 8b.

B1: DR5 where huDR5-CRD2 was mutated (Mutation huDR5-CRD2 Protein) (receptor)
chain: ITQQDLAPQQRAAPQQKRSSPSEGLCPPGHHISEDGRDCISCKYGQDYSTHWNDLLACLACTRCAAGEVELSPCTTTRNTVCQCEEGTFREEDSPEMCRKCRTGCPRGMVKVGDCTPWSDIECVHKESGIIIGVTVAAVVLIVAVFVCKSLLWKKVLPYLKGICSGGGGDPERVDRSSQRPGAEDNVLNEIVSILQPTQVPEQEMEVQEPAEPTGVNMLSPGESEHLLEPAEAERSQRRRLLVPANEGDPTETLRQCFDDFADLVPFDSWEPLMRKLGLMDNEIKVAKAEAAGHRDTLYTMLIKWVNKTGRDASVHTLLDALETLGERLAKQKIEDHLLSSGKFMYLEGNADSAMS
notes: Expressed in transfected mouse cells; also called huDR5-CRD2 mutant
Regarding B1, the binding result was “no binding”.

B2: DR5 where huDR5-CRD3 was mutated (Mutation huDR5-CRD3 Protein) (receptor)
chain: ITQQDLAPQQRAAPQQKRSSPSEGLCPPGHHISEDGRDCISCKYGQDYSTHWNDLLFCLRCTRCDSGEVELSPCTTTRNTVCQCEEGTFREEDAPAMCAKCATGCPRGMVKVGDCTPWSDIECVHKESGIIIGVTVAAVVLIVAVFVCKSLLWKKVLPYLKGICSGGGGDPERVDRSSQRPGAEDNVLNEIVSILQPTQVPEQEMEVQEPAEPTGVNMLSPGESEHLLEPAEAERSQRRRLLVPANEGDPTETLRQCFDDFADLVPFDSWEPLMRKLGLMDNEIKVAKAEAAGHRDTLYTMLIKWVNKTGRDASVHTLLDALETLGERLAKQKIEDHLLSSGKFMYLEGNADSAMS
notes: Expressed in transfected mouse cells; also called huDR5-CRD3 mutant
B2: the binding result is listed as “no binding”.
